# ± gives the uncertainty stated by the source.
# B1: Protein S100-G, residues 1 to 79; numbered along this chain, P02633 (parent)
# chain: MSAKKSPEELKGIFEKYAAKEGDPNQLSKEELKLLLQTEFPSLLKGPSTLDELFEELDKNGDGEVSFEEFQVLVKKISQ
# Variants of: B1
# Assay: abundance fitness (aPCA) (normalised: wild type 0, dead -1); higher = more abundant; growth selection in yeast, the domain comes from the species named
# Settings: Bos taurus
row,Variant,abundance fitness
1,G61L,-0.063 ± 0.064
2,G61Y,-0.065 ± 0.083
3,G61C,0.026 ± 0.08
4,G61V,-0.021 ± 0.073
5,G61H,-0.163 ± 0.081
6,G61M,-0.026 ± 0.091
7,G61E,0.067 ± 0.1
8,G61W,-0.024 ± 0.085
9,G61P,0.007 ± 0.079
10,G61Q,-0.021 ± 0.084
11,G61K,-0.05 ± 0.085
12,G61I,-0.019 ± 0.088
13,G61N,-0.072 ± 0.08
14,G61F,-0.006 ± 0.089
15,G61T,0.006 ± 0.071
16,G61S,0.019 ± 0.063
17,G61R,-0.042 ± 0.065
18,K59T,0.007 ± 0.069
19,K59S,0.009 ± 0.061
20,K59L,0.052 ± 0.058
21,K59I,-0.105 ± 0.075
22,K59D,-0.022 ± 0.085
23,K59H,0.013 ± 0.082
24,K59M,0.085 ± 0.08

row,Variant,abundance fitness
1,K59R,-0.003 ± 0.062
2,K59F,0.098 ± 0.077
3,K59Q,-0.009 ± 0.075
4,K59C,0.021 ± 0.08
5,K59N,0.009 ± 0.08
6,K59E,-0.005 ± 0.085
7,K59W,0.065 ± 0.085
8,K59Y,-0.079 ± 0.087
9,K59G,0.093 ± 0.07
10,K59A,0.055 ± 0.069
11,K59V,0.087 ± 0.067
12,D58F,0.054 ± 0.092
13,D58L,0.054 ± 0.064
14,D58Q,0.068 ± 0.09
15,D58P,-0.078 ± 0.079
16,D58R,-0.072 ± 0.067
17,D58A,-0.107 ± 0.071
18,D58C,-0.022 ± 0.089
19,D58W,-0.027 ± 0.085
20,D58M,-0.026 ± 0.09
21,D58G,0.007 ± 0.077
22,D58I,0.027 ± 0.083
23,D58T,0.021 ± 0.07
24,D58H,-0.096 ± 0.083

row,Variant,abundance fitness
1,D58N,-0.053 ± 0.084
2,D58K,-0.008 ± 0.092
3,D58E,-0.109 ± 0.09
4,D58Y,-0.008 ± 0.088
5,D58V,-0.058 ± 0.07
6,D58S,0.025 ± 0.065
7,N60H,-0.05 ± 0.088
8,N60W,-0.091 ± 0.092
9,N60Q,-0.043 ± 0.087
10,N60T,-0.042 ± 0.078
11,N60L,-0.034 ± 0.07
12,N60M,-0.164 ± 0.087
13,N60E,0.108 ± 0.1
14,N60I,0 ± 0.092
15,N60R,0.014 ± 0.071
16,N60A,0.101 ± 0.076
17,N60D,0.058 ± 0.093
18,N60C,-0.102 ± 0.087
19,N60S,0.04 ± 0.068
20,N60P,0.004 ± 0.08
21,N60K,-0.105 ± 0.084
22,N60F,-0.156 ± 0.092
23,N60G,0.027 ± 0.082
24,E55M,0.004 ± 0.078

row,Variant,abundance fitness
1,E55H,0.005 ± 0.084
2,E55K,-0.047 ± 0.082
3,E55G,0.02 ± 0.073
4,E55Q,0.031 ± 0.084
5,E55D,0.033 ± 0.089
6,E55I,-0.035 ± 0.082
7,E55T,0.005 ± 0.071
8,E55S,-0.024 ± 0.064
9,E55L,0.04 ± 0.063
10,E55A,-0.045 ± 0.072
11,E55R,0.001 ± 0.064
12,E55C,-0.014 ± 0.092
13,E55Y,0.058 ± 0.088
14,E55F,0.055 ± 0.082
15,E55W,0.011 ± 0.083
16,E55P,0.012 ± 0.077
17,E55V,-0.012 ± 0.068
18,L57D,0.081 ± 0.098
19,L57M,0.054 ± 0.09
20,L57Q,0.021 ± 0.092
21,L57A,0.079 ± 0.077
22,L57R,-0.015 ± 0.071
23,L57G,-0.117 ± 0.084
24,L57S,0.013 ± 0.069

row,Variant,abundance fitness
1,L57N,-0.042 ± 0.095
2,L57P,-0.012 ± 0.082
3,L57I,0.156 ± 0.1
4,L57K,-0.071 ± 0.089
5,L57E,-0.044 ± 0.098
6,L57H,-0.031 ± 0.086
7,L57W,0.032 ± 0.089
8,L57F,-0.014 ± 0.086
9,L57Y,0.03 ± 0.088
10,L57C,0.024 ± 0.095
11,F54D,0.035 ± 0.088
12,F54W,0.04 ± 0.078
13,F54C,-0.004 ± 0.08
14,F54Q,0.004 ± 0.079
15,F54L,0.04 ± 0.06
16,F54P,-0.073 ± 0.073
17,F54A,-0.007 ± 0.068
18,F54I,0.051 ± 0.08
19,F54V,-0.015 ± 0.065
20,F54G,-0.038 ± 0.071
21,F54T,0.03 ± 0.068
22,F54R,-0.093 ± 0.063
23,F54H,-0.054 ± 0.083
24,F54K,-0.048 ± 0.076

row,Variant,abundance fitness
1,F54Y,0.064 ± 0.083
2,F54E,-0.033 ± 0.084
3,F54N,0.039 ± 0.084
4,F54M,0.007 ± 0.076
5,F54S,0.023 ± 0.062
6,D62R,-0.003 ± 0.065
7,D62S,0.043 ± 0.062
8,D62L,-0.042 ± 0.059
9,D62I,-0.097 ± 0.076
10,D62G,-0.032 ± 0.077
11,D62V,-0.027 ± 0.065
12,D62A,-0.009 ± 0.069
13,D62P,-0.027 ± 0.074
14,D62E,0.058 ± 0.078
15,D62H,-0.045 ± 0.069
16,D62F,-0.138 ± 0.076
17,D62T,-0.044 ± 0.067
18,D62W,-0.168 ± 0.088
19,D62K,0.004 ± 0.078
20,E56H,-0.005 ± 0.085
21,E56K,-0.071 ± 0.085
22,E56R,-0.02 ± 0.07
23,E56T,0.001 ± 0.075
24,E56Y,-0.06 ± 0.086

row,Variant,abundance fitness
1,E56L,-0.082 ± 0.065
2,E56C,0.065 ± 0.086
3,E56W,-0.076 ± 0.092
4,E56A,-0.042 ± 0.082
5,E56M,-0.045 ± 0.087
6,E56Q,-0.053 ± 0.087
7,E56I,-0.208 ± 0.086
8,E56S,0.002 ± 0.064
9,E56P,0.094 ± 0.08
10,E56G,-0.006 ± 0.08
11,L53K,-0.033 ± 0.08
12,L53T,0.036 ± 0.068
13,L53Q,0.028 ± 0.079
14,L53V,0.028 ± 0.066
15,L53R,-0.031 ± 0.063
16,L53H,0.026 ± 0.075
17,L53I,0.041 ± 0.087
18,L53Y,-0.036 ± 0.084
19,L53M,0.015 ± 0.08
20,L53P,0.033 ± 0.076
21,L53W,0.013 ± 0.073
22,L53N,0.109 ± 0.085
23,L53G,-0.065 ± 0.069
